The labels stand for the following.
B1: CPEB3 Ribozyme (parent)
chain: UAACAGGGGGCCACAGCAGAAGCGUUCACGUCGCAGCCCCUGUCAGAUUCUGGUGAAUCUGCGAAUUCUGCUGUAUAUCUC

In this data set the parent is B1. Briefly: self-cleavage, relative activity (ratio to wild type); higher = more cleavage; in vitro, sequencing. The method in brief:
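Libraries of CPEB3 self-cleaving ribozyme mutants came from rounds of error-prone PCR and carried barcodes, which DNA sequencing matched to variants. In vitro transcription used T7 RNA polymerase at 37°C for 5 hours, with a further 15 min in DNase I before EDTA stopped the reaction; the ribozymes cleaved during both steps. The RNA was reverse transcribed with template switching and sequenced on Illumina. Relative activity is the cleaved/total read fraction of a variant divided by that of the unmutated ribozyme, averaged over three batches with at least 5 reads.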
For the variant U66A A75U, the self-cleavage turned out to be 0.68.

Regarding U67G C79U, the self-cleavage is 0.51.

For A64U U76C, the self-cleavage is 0.4.

For the variant A64U U76A, the self-cleavage is 0.32.

Turning to A64U U76G, the self-cleavage is 0.24.

For the variant U69C A77G, the self-cleavage was found to be 0.67.

Consider U69C A77U, for which the self-cleavage amounted to 0.77.

As for U69C A77C, the self-cleavage turned out to be 0.54.

For the variant A65U C68A, the self-cleavage was found to be 0.21.

On to A65U C68U, for which the self-cleavage stood at 0.31.

On to U66G U72C, for which the self-cleavage was determined as 0.61.

For U66G U72A, the self-cleavage is 0.24.

Take U66A U80G: the self-cleavage amounted to 0.64.

On to U66A U80C, for which the self-cleavage is 0.5.

For the variant U66A U80A, the self-cleavage came to 0.49.

Take U67A U78C: the self-cleavage amounted to 0.52.

For U67A U78A, the self-cleavage was 0.64.

For the variant U67C C79A, the self-cleavage came out at 0.49.

Consider U67C C79U, for which the self-cleavage was 0.32.

Regarding U67G C68U, the self-cleavage was 0.44.

On to U66A U69C, for which the self-cleavage is 0.26.

Take U66A U69A: the self-cleavage worked out at 0.32.

Consider U66C U74A, for which the self-cleavage came to 0.62.

U66C U74C: the self-cleavage was 0.66.

Take A65G G70A: the self-cleavage stood at 0.32.

For A65U C81A, the self-cleavage was determined as 0.43.

In the case of U69A U72A, the self-cleavage was found to be 0.33.

With U69A U72G, the self-cleavage stood at 0.49.

For U69A U72C, the self-cleavage amounted to 0.5.

Consider U67G G70C, for which the self-cleavage stood at 0.21.

Consider A65U U74A, for which the self-cleavage turned out to be 0.44.

For the variant U67C U80A, the self-cleavage came to 0.32.

For U67C U80C, the self-cleavage is 0.4.

Consider C68A U69A, for which the self-cleavage worked out at 0.25.

C68A U69C: the self-cleavage worked out at 0.17.

As to C68A U69G, the self-cleavage amounted to 0.42.

As for C68G U69C, the self-cleavage is 0.27.

For the variant C68A C81A, the self-cleavage was found to be 0.6.

As to U66C U72C, the self-cleavage is 0.45.

Consider U66C U72G, for which the self-cleavage was 0.46.

As for U66C U72A, the self-cleavage turned out to be 0.39.

On to U66C U69C, for which the self-cleavage stood at 0.34.

As for U66C U69A, the self-cleavage came to 0.3.

U66C U69G: the self-cleavage amounted to 0.31.

Turning to A64U G70A, the self-cleavage stood at 0.21.

With A64U G70U, the self-cleavage was determined as 0.26.

For A64U G70C, the self-cleavage came to 0.25.

On to A65G U74G, for which the self-cleavage came out at 0.89.

In the case of A65G U74C, the self-cleavage came to 0.79.

With A65G U74A, the self-cleavage amounted to 0.86.

Consider U67A U72G, for which the self-cleavage came out at 0.35.

Regarding U67A U72A, the self-cleavage is 0.38.

Turning to U67A U72C, the self-cleavage amounted to 0.49.

For the variant U67G U69C, the self-cleavage stood at 0.5.

U69A U76C: the self-cleavage came to 0.7.

On to U69A U76G, for which the self-cleavage stood at 0.7.

For the variant U69A U76A, the self-cleavage was found to be 0.84.

On to A65G U67C, for which the self-cleavage was determined as 0.32.

As for A65G U67G, the self-cleavage was found to be 0.16.

Consider A65G U67A, for which the self-cleavage came out at 0.3.

For U69C C79U, the self-cleavage was 0.74.

In the case of U69C C79G, the self-cleavage came to 0.72.

With A65G A75G, the self-cleavage turned out to be 0.4.

As to A65G A75U, the self-cleavage stood at 0.41.

Turning to A65G U69C, the self-cleavage came to 0.34.

Consider A65G U69A, for which the self-cleavage came to 0.33.

Consider A64U U78G, for which the self-cleavage came out at 0.35.

As to A64U U78A, the self-cleavage is 0.49.

A64U U78C: the self-cleavage was 0.31.

On to U67C U69A, for which the self-cleavage turned out to be 0.33.

With U67C U69C, the self-cleavage was 0.32.

Turning to U67C U69G, the self-cleavage turned out to be 0.45.

As to U67A C81G, the self-cleavage was 0.92.

Take C68U U72G: the self-cleavage was found to be 0.95.

Regarding C68U U72A, the self-cleavage stood at 0.35.

C68U U72C: the self-cleavage came out at 0.93.

For A65C U80C, the self-cleavage was 0.53.

Regarding U66G A75U, the self-cleavage was determined as 0.67.

As for U69C A75U, the self-cleavage came out at 0.44.

Regarding U69C A75G, the self-cleavage worked out at 0.5.

Consider A64U U80A, for which the self-cleavage came out at 0.37.

Consider A64U U80C, for which the self-cleavage was found to be 0.45.

Consider U66C C68U, for which the self-cleavage worked out at 0.39.

U69A U74A: the self-cleavage was 0.55.

As for U69A U74C, the self-cleavage came to 0.96.

Take U69C U74C: the self-cleavage was found to be 0.74.

Consider U69C U74G, for which the self-cleavage worked out at 0.88.

As for U69C U74A, the self-cleavage worked out at 0.55.

Consider U66A A77U, for which the self-cleavage amounted to 0.65.

U66A A77G: the self-cleavage amounted to 0.45.

Turning to U66C U80A, the self-cleavage came out at 0.48.

U66C U80C: the self-cleavage worked out at 0.45.

Regarding U66C U80G, the self-cleavage stood at 0.49.

In the case of C68G A77G, the self-cleavage worked out at 0.61.

As to C68A A75U, the self-cleavage came out at 0.28.

For U67A, the self-cleavage came to 0.54.

Consider U67G, for which the self-cleavage was 0.4.

Consider U67C, for which the self-cleavage came to 0.32.

For C68A G70U, the self-cleavage stood at 0.36.

In the case of U66C U76G, the self-cleavage is 0.39.

With U66C U76C, the self-cleavage was determined as 0.43.

Consider U66C U76A, for which the self-cleavage amounted to 0.41.

As for U66G U80C, the self-cleavage was 0.54.

With U66G U80A, the self-cleavage stood at 0.67.

Turning to U67A G70A, the self-cleavage came to 0.45.

Consider U67A G70C, for which the self-cleavage was found to be 0.23.

Take U69C U72A: the self-cleavage was determined as 0.36.

With U69C U72C, the self-cleavage is 0.37.

Take U69C U72G: the self-cleavage came to 0.35.

On to U67A G73A, for which the self-cleavage was 1.05.

U67A G73C: the self-cleavage is 1.07.

On to C68U U80C, for which the self-cleavage worked out at 1.08.

As for A65G U66C, the self-cleavage turned out to be 0.27.

Take A65G U66A: the self-cleavage worked out at 0.17.

Turning to U67G U78A, the self-cleavage was determined as 0.67.

In the case of U67G U78C, the self-cleavage is 0.3.

As for U66A U76C, the self-cleavage was determined as 0.57.

For U66A G73A, the self-cleavage turned out to be 1.04.

A65C A75G: the self-cleavage came out at 0.11.

As to A65C, the self-cleavage was found to be 0.29.

As for A65G, the self-cleavage is 0.52.

In the case of A65U, the self-cleavage is 0.33.

As to U69C G70U, the self-cleavage is 0.25.

On to U69C G70A, for which the self-cleavage was 0.24.

As to U69C G70C, the self-cleavage was 0.22.

As for A65C U78C, the self-cleavage came out at 0.15.

As for A64U U69A, the self-cleavage was found to be 0.32.

Regarding A64U U69G, the self-cleavage was found to be 0.4.

Turning to A64U U69C, the self-cleavage was determined as 0.29.

Take U69C C71A: the self-cleavage amounted to 0.2.

In the case of U69C C71G, the self-cleavage was determined as 0.24.

Consider U66G C68G, for which the self-cleavage is 0.29.

Take U66G C68U: the self-cleavage was 0.38.

Take U67C G73U: the self-cleavage was found to be 0.46.

As to U67C G73A, the self-cleavage is 0.34.

With U67C G73C, the self-cleavage is 0.46.

Consider A65G U76C, for which the self-cleavage stood at 0.53.

Take A65G U76G: the self-cleavage was 0.53.

Turning to A65G U76A, the self-cleavage was found to be 0.48.

Consider U67A C68U, for which the self-cleavage came to 0.33.

U67A C71U: the self-cleavage stood at 0.11.

On to U67A C71G, for which the self-cleavage was 0.33.

U67A C71A: the self-cleavage was 0.3.

As to U66A U78C, the self-cleavage was 0.31.

As for U66A U78A, the self-cleavage is 0.38.

Take U69A C81A: the self-cleavage was found to be 0.98.

On to U69A C81U, for which the self-cleavage is 0.84.

In the case of U67C U76A, the self-cleavage was 0.3.

For the variant U67C U76C, the self-cleavage is 0.3.

Take U66A U74C: the self-cleavage worked out at 0.86.

U66A U74A: the self-cleavage is 0.85.

For U66A U74G, the self-cleavage was found to be 0.59.

As for A65U U78C, the self-cleavage is 0.18.

Consider A65G A77U, for which the self-cleavage came out at 0.55.

As to A65G A77C, the self-cleavage was 0.45.

Take A65G A77G: the self-cleavage turned out to be 0.51.

For U67C U78A, the self-cleavage stood at 0.29.

For the variant U67C U78C, the self-cleavage was 0.35.

Take U67C U78G: the self-cleavage was 0.12.

In the case of A64U U74A, the self-cleavage was determined as 0.51.

On to A64U U74C, for which the self-cleavage worked out at 0.6.

Turning to A64U U72G, the self-cleavage came to 0.37.

In the case of A64U U72C, the self-cleavage was 0.5.

For A64U U72A, the self-cleavage came to 0.35.

Turning to U67C A75U, the self-cleavage came to 0.26.

Regarding U67C A75G, the self-cleavage came out at 0.35.

As to U69A G70A, the self-cleavage stood at 0.24.

Source of the values: the RNAGym collection of RNA variant scans (doi:10.1093/nar/gkz1192).
